Results reported in the nanobody polyreactivity screen of Harvey et al. (2022).

Assay: yeast display, Sf9 membrane polyspecificity reagent, FACS + sequencing; frameworks hold sequencing errors
Method in brief: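 In a synthetic yeast display library (Saccharomyces cerevisiae BJ5465), nanobody expression was induced with galactose for 36–48 hours. FACS gates were set low and high (top ~1%) using anti-HA fluorescence for expression and streptavidin fluorescence for binding of the Sf9 membrane reagent. Each polyreactivity label is drawn from the gate of origin.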

Sequence | polyreactivity (PSR sort gate)
QVQLVESGGGLVQAGGSLRLSCAASGFTFNWYAMGWYRQAPGKERELVAAINSSGGNTYYADSVKGRFTISRDNAKNTVYLQMNSLKPEDTAVYYCAALLWGYVAFDYWGQGTQVTVSS | high polyreactivity
QDQLVESGGGLVQAGGSLRLSCAASGSIFYYYAMGWYRQAPGKERELVASISRSGGSTFYADSVKGRFTISRDNAKNSVYLQMNRLKPEDTAVSYCATGWYYSPYNYWGQGTQVTVSS | high polyreactivity
QVQLVESGGGLVQAGGSLRLSCAASGSTFGAYAMGWYRQAPGKERELVAAISSSGGRTYYADSVKGRFTISRDNAKNTVYLQMNSLKPEDTAVYYCATYYRHYDLLYYYWGQGTQVTVSS | high polyreactivity
QVQLVESGGRLVQAGGSLRLSCAASGFTFSHYAMGWYRQAPGKERELVAAISGRGGSTYYADSVKGRFTISRDNAKNTVYLPMNSLKPEDTAVYYCAARPSTYYTGHDYWGQGTQVTVSS | high polyreactivity
QVQLVESGGGLVQAGGSLRLSCAASGRTFYGYAMGWYRQAPGKERELVAAITSSGGSTYYADSVKGRFTISRDNAKNTVYLQMNSLKPEDTAVYYCAKTSRYLTGGGDYWGQGTQVTVSS | high polyreactivity
QVQLVESGGGLVQAGGSLRLSCAASGSTFTSYAMGWYRQAPGKERELVAAISKSGGSTYYADSVKGRFTISRDNAKNTVSLQMNSLKPEDSAVFYCAARYIVRSYSTSRFDYWGQGTQVTVSS | low polyreactivity
QVQLVESGGGLVQAGGSLRLSCAASGSIFIGYAMGWYRQAPGKERELVAAITNGGRTYYADSVKGRFTISRDNAKNTVYLQMNSLKPEDTAVYYCAAVPSQTYRRTPYLWHDYWGQGTQVTVSS | high polyreactivity
QVQLVESGGGLVQAGGRLRLSCAASGSTFDPNAEGWYRPAPGKARELVAVIDSGDGTTYYADSVKGRVTISRDKAKNTVYLQMNSLKPEDTAVYYCAAEFHWWYAGYDYGYWGQGTQVTVSS | low polyreactivity
QVQLVESGGGLVKAGGSLRITCAASGRIFGYYPMGWYRPATGKESELVAAITRRGGITYYADSVKGRFTISRDNAKNTVYLPMNCLKPADTAVYYRAADRYWGYDYWGQGTQVTGSS | high polyreactivity
QVQLVESGGGLVQAGGSLRLSCAASGIIFPYYAMGWYRQAPGKERELVAAISSRDGRTYYADSVKGRFTISRDNAKNTVYLQMNSLKPEDTAVYYCAARAVGGVRGYRYDYWGQGTQVTVSS | high polyreactivity
QVHLVESGGGLVQAGGSLRISCAATGYTFLYNAMGWYRQAPGKEREFVAGIRRSVGSTYYADSVKGRFTISRDNAKNTVYLQMNSMTREDTAVYYCALVPALYRYRVGTYAYDYWGQGTQVTVSS | low polyreactivity
QVQLVESGGGLVQAGGSLRLSCAASGGTFYTNVMGWYRQAPGKERELVAAITRSGGSTHYADSVKGRFTISRDNAKNTVYLQMNSLKPEDTAVYYCAVGSPYYDGMDYWGQGTQVTVSS | low polyreactivity
QVQLVESGGGLFKAGGSLRLSSAASGSIFQNYDMGWYRQAPGNERELVAAISSSGDTYYADSVKGRFTISLDNAKNTVYLQMNSLKPEDTAVYYCAATYPYSLYYPYYGGDYDYWGQGTQVTVSS | low polyreactivity
QVQLVESGGGLVQAGGRLRLICAASGYTFPLYAMGWYRPAPGKERELVADINIGGASTYYADSVKGRFTISRDNAKNTVELQMNSLKPEDPAVYYCAKEYYDGYFPTFDYDYWGQGTQVTVSS | low polyreactivity
QEQLQESGGCLVQAGGSLRLSCAASGSIFYVYGMGWFRQPPGKELELVAGINDGTNTNYADSVRGRFTISRDNAKNTVLLQMNSLKPEDTAVYYCAADGNCYQAHEYWGVGTQVTVSS | high polyreactivity
QDQLGESGGGLVQAGGSLRLTCAASGFIFSNNAMGWYRPSPGKERELVAAISGSGVSTYYADSVKGRFTISRDNAKNTVYLQMNSLKPEDTAVYYCAASASLRHDYWGQGTQVTVSS | high polyreactivity
QVQLVESGGGLVQAGGSLRLSCAASGSIFGSNAMGWYRQAPGKERELVAAISSGSTYYADSVKGRFTISRDNAKNTVYLQMNSLKPEDTAVYYCNARSLLYEFDYWGQGTQVTVSS | low polyreactivity
QVHLVESGGGLVQAGGSLRLSCSASGRIFDNYVMGWYRQAPGKERELVAAISSGGGTYYADSVKGRFTISRDNAKNTVFLQMNSLKPEDTAVYYCAKRRVYDRSFGRYDYWGQGTQVTVSS | low polyreactivity
QVQLVESGGGLVQAGGSLRLSCAASGFTFYSYAMGWYRQAPGTERELVAAISGGGGSTYYADSVKGRFTISRDNAKNTVYLQMNSLKPEDTAVYYCAKRPAYRGYGLGYYWGQGTQVTVSS | high polyreactivity
QVQLVESGGGLVQAGGSLSLSCAASGLTFRSYTMGWYRQAPGKERELVAAISSGGSTYYADSVKGRFTISRDNAKNTVYLQMNSLKPEDTAVYYCAAPRGHGKYYSWGQGTQVTVSS | high polyreactivity
QVQLVESGGGLVQAGGSLRLSCAASGFIFYRYAMGWYRQAPGKERELVAAISTLGGSTFYADSVKGRFTISRDNAKNTVYLQMISLKPEDTAVYYCATGPLRAYDYWGQGTQVTVSS | high polyreactivity
QVQLVESGGGLVQAGGSLRLSCAASGSIFGYYAMGWYRQAPGKERELVAAIRTTGGRTYYADSVKGRFTISRDNAKNTVYLQMNSLKPEDTAVYYCNALQAGVSYDYWGQGTQVTVSS | high polyreactivity

Sequence | polyreactivity (PSR sort gate)
QGQLVESGGGLVQAGGSLRLSCAASGSIFSLNSMGWYRQAPGKERELVAASGGGSTYYADSVKGRFTISRDNAKNTVYLQMNSLKTEDTAVYYCAGDQSFDYDFSHYYYWGQGTQVTVSS | low polyreactivity
QVQLVESGRGLVQAGGSLRLSCAASGITFVRYAMGWYRQAPGKEREFVAAITTSGGSTYYADSVKGRFTISRDNAKYSVYLQLNSLKPEDTAVYYCAARANAASRTFNYWGQGTQVTVSS | high polyreactivity
QVQLVESGGGLVQAGGSLRLSCAASGSTFYVNAMGWYRQAPGKERELVAAISRRGGSTYYADSVKGRFTISRDNAKNTVYLQMNSLKPEDTAVYYCNVVPVWRPYSLINWQKHFGYWGQGTQVTVSS | high polyreactivity
QVQLVESGGGLVQAGGSLRLSCAASGSTIGPNAMGSYRQAPGKERELVAAIRSNGGRTYYADSVKGRFTISRDNAKNTVYLQMNSLKPEDTAVYYCAAPHYPYDTPYGYWGQGTQVTVSS | low polyreactivity
QVQLVESGGGLDQAGGSLRLSCADSGYTFRAYAMGWYRQAPGKERELVAAITRSGTSTYYADSVKGRFTISRDNAKNTVYLQMNSLKPEDTAVYYCNVDVYLYAKEYDYWGQGTQVTVSS | high polyreactivity
QVQLVESGGGLVQAGGSLRLRCAASGRTFIVYAMGWYRQAPGKERELVARISSGSRTSYADSVKGRFTISRDNAKNTVYLQMNSLKPEDTAVYYCAKSRVIKYEFDYWGQGTEVTVSS | low polyreactivity
QDQLVESGGGLVQAGGSLRLSCAASGFIFVVYAMGWYTQAPGKERELVAAITYSGGSTYYADSVKGRFTISRDNAKNTVDLQMNSLKPEDTAVYYCAAPEHDREFDYWGQGTQVTVSS | low polyreactivity
QVQIVESGGGLVQAGGSLRLSCAASGSIFQGNPMGWYRQAPWKEREFVAAISWSGDSTYYADSVKGRFTISRDNAKYSVYLQMNSLKTEDTAVYYCGADPWDIYRRLSPGDHDYWGQCTQVTVSS | low polyreactivity
QVQLVESGGGLVQAGGSLRLSCAASGRTFFKNAMGWYRQAPGKERELVASISSRSGTTYYADSVKGRFTISRDNAKNTVYLQMNSLKPEDTAVYYCAADIYWWRGSTHGMDYWGQGTQVTVSS | high polyreactivity
QVQLVESGGGLVQAGGSLRISCAASGFIFFPYTRGCSRQAPGKLMELVAAITNGGSTSYADSVKGRFTISRDNAKKTGYLQMNSLKPEDTAVYSCAAVLGRNLLHTYYYWGQGTQVTGSS | low polyreactivity
QVQLVESGGGLVQAGGSLRLSCAASGSTFQANTMGWYRQAPGKERELVAAISIRGANTYYADSVKGRFTISRDNAKNTVYLQMNSLKPEDTAVYYCNAALRTRRGDYDYWGQGTQVTVSS | high polyreactivity
QDHLVESGGGLVQAGGSLRLSCAASGSIFYRYAMGWYRQAPWKERELVAAISRSGGTTYYADSVKGRFTISRDNAKNTVYLQMNSLKPEDTAVYYCAARVFHPYSTDPYYYWGQGTQVTVSS | high polyreactivity
QVQLVESGGGLVQAGGSLRLSCAASGSIFSKYTMGWYRQAPGKERELVAAIRGSGVRTYYADSVKGRFTISRDNAKNTVYLQMNSLKPEDTAVYYCAKVVYRGKVALWISSTAGSDYWGQGTQVTVSS | low polyreactivity
QVQLVESGGGLVQAGGSLRLSCAASGITFYGYDMGWYRQAPGKERELVAAITSDGITNYADSVKGRFTISRDNAKNTVYLQMNSLKPEDTAVYYCAADLSFYRRYEWYYYWGQGTQVTVSS | low polyreactivity
QVQLVESGGGLVQAGGSLRLSCAASGRTFRRYAMGWYRQAPGKERELVAAISYSGTTTYYADSVKGRFTISRDNAKNTVYLQMNSLKPEDTAVYYCNKATAFGLDYWGQGTQVTVSS | high polyreactivity
QVQLVDSWGGLVQAGGSLRLSCAASGSIFYRKAMGCYRQAPGKERELFAAITRSDVRTYYADSVKGRFTISRDNAKNTVYLQMNSLKPEDTAVYYCAALEYGSYQHFGEDYWGQGSQVTVSS | low polyreactivity
QVQLVESGGGLVQAGGRLRLSCAASGSIFTYYVMGWYRQAPGKERELVAAITISGGSTYYADSVKGRFTISRDNAKNTVYLQMNRLNPEDTAVYYCAAEEVYYEADGFQNSYDYWGQGTQVTVSS | high polyreactivity
QVQLVESGGGLVQAGGSLRLSCAASGSTFILNAMGWYRQAPGKEWELVAAISRSGGNTYYADSVKGRFTISRDIAKNTVYLQMNSLKPEDTAVYYCAATRRSHYYYWGQGTQVTVSS | high polyreactivity
QVQLVESGGGLVQAGGSLRLSCAASGLTFRVYAMGWYRQAPGKERELVAAITGGGRTYYADSVKGRFTISRDNAKNTVYLQMNSLKPEDTAVYYCAAAGYYVWGQGTQVTVSS | high polyreactivity
QVQLVESGGGLVQAGGSLRLSCAASGRTFWYYGMGWYRQAPGKERELVAAISRSGGRTYYADSVKGRFTISRDNAKNTVYLQMNSLKPEDTAVYYCVASYRRTFDYWGHGTQVTVSS | high polyreactivity
QVQLVESGGGLVQAGGSLRLSCAASGRIFKQYAMGWYRQAPGKERELVAAISVRGGITYYADSVKGRFTISRDNAKNTVYLQMNSLKPEDTAVYYCAKRSYRTHTYDYWGQGTQVTVSS | low polyreactivity
